Test results from PMC2928020.

Target: FITC-labeled alanine-extended version of the β2AR C-terminal peptide (TNDSLLA) (human)
Assay: fluorescence polarisation

For “SNX27 PDZ domain, wild type (residues 39-131 of rat SNX27) (from UniProt Q8K4V4 39-131) (domain or fragment)”, the Kd was over 100 µM.
